Data reported in the supplement of paper PMC11908140.

B1: library; numbered along this chain (parent)
chain: MRKPRAAVGSGHRKQAASQEGRQKHAKNNSQAKPSACDGLARQPEEVVLQASVSSYHLFRDVAEVTAFRGSLLSWYDQEKRDLPWRRRAEDEMDLDRRAYAVWVSEVMLQQTQVATVINYYTGWMQKWPTLQDLASASLEEVNQLWAGLGYYSRGRRLQEGARKVVEELGGHMPRTAETLQQLLPGVGRYTAGAIASIAFGQATGVVDGNVARVLCRVRAIGADPSSTLVSQQLWGLAQQLVDPARPGDFNQAAMELGATVCTPQRPLCSQCPVESLCRARQRVEQEQLLASGSLSGSPDVEECAPNTGQCHLCLPPSEPWDQTLGVVNFPRKASRKPPREESSATCVLEQPGALGAQILLVQRPNSGLLAGLWEFPSVTWEPSEQLQRKALLQELQRWAGPLPATHLRHLGEVVHTFSHIKLTYQVYGLALEGQTPVTTVPPGARWLTQEEFHTAAVSTAMKKVFRVYQGQQPGTCMGSKRSQVSSPCSRKKPRMGQQVLDNFFRSHISTDAHSLNSAAQ

Variants of: B1
Experiment: 8OG:A repair function score (normalized; synonymous = 0, nonsense = -1) (normalized log-likelihood score); higher = more repair activity (WT-like)
Conditions: with 8OG:A DNA repair reporter (GFP) in HEK-293 MUTYH KO cells
Outline: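 Lentiviral MUTYH cDNA NNN codon-scan libraries were expressed in MUTYH knockout HEK-293 cells with 10 pg/ml doxycycline, and the cells received an 8OG:A GFP repair reporter together with mCherry. At 72 h, viable mCherry+ cells went into GFP+ (repair) or GFP− bins, three replicates per tile, before tile amplicons were sequenced. A repair function score was then built from per-tile Rosace fitness scores, anchored on the synonymous and nonsense distributions. Synonymous medians sat at 0 and nonsense at -1, and variants under 300 counts per million at the start were left out.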
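Further: cells sorted at 72 h after reporter transfection.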

| Variant | 8OG:A repair function score |
| --- | --- |
| MRKPRAAVGSGHRKQAASQEGRQKHAKNNSQAKPSACDGLARQPEEVVLQASVSSYHLFRDVAEVTAFRGSLLSWYDQEKRDLPWRRRAEDEMDLDRRAYAVWVSEVMLQQTQVATVINYYTGWMQKWPTLQDLASASLEEVNQLWAGLGYYSRGRRLQEGARKVVEELGGHMPRTAETLQQLLPGVGRYTAGAIASIAFGQATGVVDGNVARVLCRVRAIGADPSSTLVSQQLWGLAQQLVDPARPGDFNQAAMELGATVCTPQRPLCSQCPVESLCRARQRVEQEQLLASGSLSGSPDVEECAPNTGQCHLCLPPSEPWDQTLGVVNFPRKASRKPPREESSATCVLEQPGALGAQILLVQRPNSGLLAGLWEFPSVTWEPSEQLQRKALLQELQRWAGPLPATHLRHLGEVVHTFSHIKLTYQVYGLALEGQTPVTTVPPGARWLTQEEFHTAAVSTAMKKVFRVYQGQQPGTCMHSKRSQVSSPCSRKKPRMGQQVLDNFFRSHISTDAHSLNSAAQ [G479H] | 0.0228 |
| MRKPRAAVGSGHRKQAASQEGRQKHAKNNSQAKPSACDGLARQPEEVVLQASVSSYHLFRDVAEVTAFRGSLLSWYDQEKRDLPWRRRAEDEMDLDRRAYAVWVSEVMLQQTQVATVINYYTGWMQKWPTLQDLASASLEEVNQLWAGLGYYSRGRRLQEGARKVVEELGGHMPRTAETLQQLLPGVGRYTAGAIASIAFGQATGVVDGNVARVLCRVRAIGADPSSTLVSQQLWGLAQQLVDPARPGDFNQAAMELGATVCTPQRPLCSQCPVESLCRARQRVEQEQLLASGSLSGSPDVEECAPNTGQCHLCLPPSEPWDQTLGVVNFPRKASRKPPREESSATCVLEQPGALGAQILLVQRPNSGLLAGLWEFPSVTWEPSEQLQRKALLQELQRWAGPLPATHLRHLGEVVHTFSHIKLTYQVYGLALEGQTPVTTVPPGARWLTQEEFHTAAVSTAMKKVFRVYQGQQPGTCMSSKRSQVSSPCSRKKPRMGQQVLDNFFRSHISTDAHSLNSAAQ [G479S] | 0.00355 |
| MRKPRAAVGSGHRKQAASQEGRQKHAKNNSQAKPSACDGLARQPEEVVLQASVSSYHLFRDVAEVTAFRGSLLSWYDQEKRDLPWRRRAEDEMDLDRRAYAVWVSEVMLQQTQVATVINYYTGWMQKWPTLQDLASASLEEVNQLWAGLGYYSRGRRLQEGARKVVEELGGHMPRTAETLQQLLPGVGRYTAGAIASIAFGQATGVVDGNVARVLCRVRAIGADPSSTLVSQQLWGLAQQLVDPARPGDFNQAAMELGATVCTPQRPLCSQCPVESLCRARQRVEQEQLLASGSLSGSPDVEECAPNTGQCHLCLPPSEPWDQTLGVVNFPRKASRKPPREESSATCVLEQPGALGAQILLVQRPNSGLLAGLWEFPSVTWEPSEQLQRKALLQELQRWAGPLPATHLRHLGEVVHTFSHIKLTYQVYGLALEGQTPVTTVPPGARWLTQEEFHTAAVSTAMKKVFRVYQGQQPGTCMMSKRSQVSSPCSRKKPRMGQQVLDNFFRSHISTDAHSLNSAAQ [G479M] | -0.0116 |
| MRKPRAAVGSGHRKQAASQEGRQKHAKNNSQAKPSACDGLARQPEEVVLQASVSSYHLFRDVAEVTAFRGSLLSWYDQEKRDLPWRRRAEDEMDLDRRAYAVWVSEVMLQQTQVATVINYYTGWMQKWPTLQDLASASLEEVNQLWAGLGYYSRGRRLQEGARKVVEELGGHMPRTAETLQQLLPGVGRYTAGAIASIAFGQATGVVDGNVARVLCRVRAIGADPSSTLVSQQLWGLAQQLVDPARPGDFNQAAMELGATVCTPQRPLCSQCPVESLCRARQRVEQEQLLASGSLSGSPDVEECAPNTGQCHLCLPPSEPWDQTLGVVNFPRKASRKPPREESSATCVLEQPGALGAQILLVQRPNSGLLAGLWEFPSVTWEPSEQLQRKALLQELQRWAGPLPATHLRHLGEVVHTFSHIKLTYQVYGLALEGQTPVTTVPPGARWLTQEEFHTAAVSTAMKKVFRVYQGQQPGTCMESKRSQVSSPCSRKKPRMGQQVLDNFFRSHISTDAHSLNSAAQ [G479E] | 0.0225 |
| MRKPRAAVGSGHRKQAASQEGRQKHAKNNSQAKPSACDGLARQPEEVVLQASVSSYHLFRDVAEVTAFRGSLLSWYDQEKRDLPWRRRAEDEMDLDRRAYAVWVSEVMLQQTQVATVINYYTGWMQKWPTLQDLASASLEEVNQLWAGLGYYSRGRRLQEGARKVVEELGGHMPRTAETLQQLLPGVGRYTAGAIASIAFGQATGVVDGNVARVLCRVRAIGADPSSTLVSQQLWGLAQQLVDPARPGDFNQAAMELGATVCTPQRPLCSQCPVESLCRARQRVEQEQLLASGSLSGSPDVEECAPNTGQCHLCLPPSEPWDQTLGVVNFPRKASRKPPREESSATCVLEQPGALGAQILLVQRPNSGLLAGLWEFPSVTWEPSEQLQRKALLQELQRWAGPLPATHLRHLGEVVHTFSHIKLTYQVYGLALEGQTPVTTVPPGARWLTQEEFHTAAVSTAMKKVFRVYQGQQPGTCMRSKRSQVSSPCSRKKPRMGQQVLDNFFRSHISTDAHSLNSAAQ [G479R] | -0.0309 |
| MRKPRAAVGSGHRKQAASQEGRQKHAKNNSQAKPSACDGLARQPEEVVLQASVSSYHLFRDVAEVTAFRGSLLSWYDQEKRDLPWRRRAEDEMDLDRRAYAVWVSEVMLQQTQVATVINYYTGWMQKWPTLQDLASASLEEVNQLWAGLGYYSRGRRLQEGARKVVEELGGHMPRTAETLQQLLPGVGRYTAGAIASIAFGQATGVVDGNVARVLCRVRAIGADPSSTLVSQQLWGLAQQLVDPARPGDFNQAAMELGATVCTPQRPLCSQCPVESLCRARQRVEQEQLLASGSLSGSPDVEECAPNTGQCHLCLPPSEPWDQTLGVVNFPRKASRKPPREESSATCVLEQPGALGAQILLVQRPNSGLLAGLWEFPSVTWEPSEQLQRKALLQELQRWAGPLPATHLRHLGEVVHTFSHIKLTYQVYGLALEGQTPVTTVPPGARWLTQEEFHTAAVSTAMKKVFRVYQGQQPGTCMNSKRSQVSSPCSRKKPRMGQQVLDNFFRSHISTDAHSLNSAAQ [G479N] | -0.00734 |
